Test results published in publication PMC5435990 (Nucleic Acids Research, 2017).
“And” between values parts separate entries of the source, which are not always exact repeats. Equal entries are not always repeated.

Assays:
[1] = molecular target: the molecule itself; test: scanning Number and Brightness
[2] = molecular target: the molecule itself; test: scanning Number and Brightness; remark: listed apart in the source
SEC = molecular target: the molecule itself; test: SEC

B1: GFP-Mrr D203A catalytic mutant (enzyme)
chain: MTVPTYDKFIEPVLRYLATKPEGAAARDVHEAAADALGLDDSQRAKVITSGQLVYKNRAGWAHDRLKRAGLSQSLSRGKWCLTPAGFDWVASHPQPMTEQETNHLAFAFVNVKLKSRPDAVDLDPKADSPDHEELAKSSPDDRLDQALKELRDAVADEVLENLLQVSPSRFEVIVLDVLHRLGYGGHRDDLQRVGGTGDGGIAGVISLDKLGLEKVYVQAKRWQNTVGRPELQAFYGALAGQKAKRGVFITTSGFTSQARDFAQSVEGMVLVDGERLVHLMIENEVGVSSRLLKVPKLDMDYFE
[1]
  stoichiometry N: 2

B2: GFP-Mrr fusion protein (Mrr, Methylated adenine Recognition and Restriction, fused with GFPmut2) (enzyme)
chain: MTVPTYDKFIEPVLRYLATKPEGAAARDVHEAAADALGLDDSQRAKVITSGQLVYKNRAGWAHDRLKRAGLSQSLSRGKWCLTPAGFDWVASHPQPMTEQETNHLAFAFVNVKLKSRPDAVDLDPKADSPDHEELAKSSPDDRLDQALKELRDAVADEVLENLLQVSPSRFEVIVLDVLHRLGYGGHRDDLQRVGGTGDGGIDGVISLDKLGLEKVYVQAKRWQNTVGRPELQAFYGALAGQKAKRGVFITTSGFTSQARDFAQSVEGMVLVDGERLVHLMIENEVGVSSRLLKVPKLDMDYFE
[2]
  stoichiometry N: 2

B3: Strep-tagged GFP-Mrr (enzyme, Escherichia coli K-12, UniProt P24202 1-304, looked up)
chain: MTVPTYDKFIEPVLRYLATKPEGAAARDVHEAAADALGLDDSQRAKVITSGQLVYKNRAGWAHDRLKRAGLSQSLSRGKWCLTPAGFDWVASHPQPMTEQETNHLAFAFVNVKLKSRPDAVDLDPKADSPDHEELAKSSPDDRLDQALKELRDAVADEVLENLLQVSPSRFEVIVLDVLHRLGYGGHRDDLQRVGGTGDGGIDGVISLDKLGLEKVYVQAKRWQNTVGRPELQAFYGALAGQKAKRGVFITTSGFTSQARDFAQSVEGMVLVDGERLVHLMIENEVGVSSRLLKVPKLDMDYFE
SEC
  stoichiometry N: 4 and 2
